Measured values as given in paper PMC9482650, “Quantitative fragmentomics allow affinity mapping of interactomes” (Nature Communications, 2022).

What was measured:
Assay in all cases: holdup assay
Design in all cases: key: below the threshold = too weak to quantify, mostly under pKd 3.1 to 4
FRMPD4, Q14CM0 = biological target: FRMPD4, Q14CM0
CARD11, Q9BXL7 = biological target: T1, CARD11, Q9BXL7
T1 sequence (Q9BXL7 662-765, limits assumed, looked up): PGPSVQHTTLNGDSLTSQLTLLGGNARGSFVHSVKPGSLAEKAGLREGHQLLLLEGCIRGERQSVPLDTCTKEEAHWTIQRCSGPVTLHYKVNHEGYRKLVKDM

LNX1_2, Q8TBB1 = biological target: LNX1_2, Q8TBB1
LNX1_2, Q8TBB1, sequence (Q8TBB1 371-470): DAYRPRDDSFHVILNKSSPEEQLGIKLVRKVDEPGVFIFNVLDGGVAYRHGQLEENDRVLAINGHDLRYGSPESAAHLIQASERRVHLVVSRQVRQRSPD

SCRIB_3, Q14160 = biological target: SCRIB_3, Q14160
SCRIB_3, Q14160, sequence (Q14160 999-1103): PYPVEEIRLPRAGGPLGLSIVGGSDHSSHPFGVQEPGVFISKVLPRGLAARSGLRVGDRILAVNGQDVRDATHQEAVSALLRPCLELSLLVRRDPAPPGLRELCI

NHERF3_4, Q5T2W1 = biological target: T2, NHERF3_4, Q5T2W1
T2 sequence (Q5T2W1 373-468, limits assumed, looked up): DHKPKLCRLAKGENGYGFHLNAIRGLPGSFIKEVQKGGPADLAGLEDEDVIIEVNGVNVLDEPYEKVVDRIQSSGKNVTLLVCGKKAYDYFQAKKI

FRMPD2_3, Q68DX3 = biological target: FRMPD2_3, Q68DX3
FRMPD2_3, Q68DX3, sequence (Q68DX3 1073-1166): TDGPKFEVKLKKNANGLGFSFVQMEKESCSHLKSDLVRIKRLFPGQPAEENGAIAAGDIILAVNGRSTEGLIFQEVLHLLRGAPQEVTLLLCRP

LNX1_1, Q8TBB1 = biological target: LNX1_1, Q8TBB1
LNX1_1, Q8TBB1, sequence (Q8TBB1 261-371): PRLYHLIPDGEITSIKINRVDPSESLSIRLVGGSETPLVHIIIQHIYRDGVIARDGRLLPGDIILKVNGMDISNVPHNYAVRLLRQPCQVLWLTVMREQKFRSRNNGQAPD

RADIL, Q96JH8 = biological target: T3, RADIL, Q96JH8
T3 sequence (Q96JH8 971-1071, limits assumed, looked up): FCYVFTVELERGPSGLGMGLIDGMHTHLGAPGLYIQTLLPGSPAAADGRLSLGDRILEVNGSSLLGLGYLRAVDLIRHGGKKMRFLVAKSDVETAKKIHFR

LDB3, O75112 = biological target: LDB3, O75112
LDB3, O75112, sequence (O75112 1-94): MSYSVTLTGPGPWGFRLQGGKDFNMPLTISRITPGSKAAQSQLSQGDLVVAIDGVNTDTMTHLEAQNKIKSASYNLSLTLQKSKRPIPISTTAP

ARHGEF12, Q9NZN5-2 = biological target: ARHGEF12, Q9NZN5-2
ARHGEF12, Q9NZN5-2, sequence (Q9NZN5 other isoform, or with tags, fused parts or gaps): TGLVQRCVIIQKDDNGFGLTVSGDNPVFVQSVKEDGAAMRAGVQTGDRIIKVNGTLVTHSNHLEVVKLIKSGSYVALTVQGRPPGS

NOS1, P29475 = biological target: NOS1, P29475
NOS1, P29475, sequence (P29475 9-101): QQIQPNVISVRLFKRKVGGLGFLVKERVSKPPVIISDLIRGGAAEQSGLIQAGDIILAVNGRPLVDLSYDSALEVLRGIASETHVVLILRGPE

PTPN3, P26045 = biological target: PTPN3, P26045
PTPN3, P26045, sequence (P26045 505-587): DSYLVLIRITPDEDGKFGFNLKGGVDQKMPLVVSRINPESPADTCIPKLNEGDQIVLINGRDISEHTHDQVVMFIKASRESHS

MAGI1_1, Q96QZ7 = biological target: MAGI1_1, Q96QZ7
MAGI1_1, Q96QZ7, sequence (Q96QZ7 1-106): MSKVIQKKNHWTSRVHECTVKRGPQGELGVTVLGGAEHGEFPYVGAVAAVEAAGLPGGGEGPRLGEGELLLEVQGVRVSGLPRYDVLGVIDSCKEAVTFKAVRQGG

GORASP1, Q9BQQ3 = biological target: GORASP1, Q9BQQ3
GORASP1, Q9BQQ3, sequence (Q9BQQ3 1-208): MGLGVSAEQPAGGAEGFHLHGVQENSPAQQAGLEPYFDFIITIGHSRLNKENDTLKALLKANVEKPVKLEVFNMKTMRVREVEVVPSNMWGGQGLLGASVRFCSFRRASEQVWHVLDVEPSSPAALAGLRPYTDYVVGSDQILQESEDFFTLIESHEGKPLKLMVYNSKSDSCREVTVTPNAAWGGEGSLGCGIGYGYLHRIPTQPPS

GRIP2_5, Q9C0E4 = biological target: GRIP2_5, Q9C0E4
GRIP2_5, Q9C0E4, sequence (Q9C0E4 544-642): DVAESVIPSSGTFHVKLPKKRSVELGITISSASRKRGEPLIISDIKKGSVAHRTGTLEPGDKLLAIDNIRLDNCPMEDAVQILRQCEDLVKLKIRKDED

MPP7, Q5T2T1 = biological target: T4, MPP7, Q5T2T1
T4 sequence (Q5T2T1 134-230, limits assumed, looked up): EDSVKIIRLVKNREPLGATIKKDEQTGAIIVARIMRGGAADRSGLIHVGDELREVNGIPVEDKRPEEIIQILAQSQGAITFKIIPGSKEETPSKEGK

MAGI2_3, Q86UL8 = biological target: MAGI2_3, Q86UL8
MAGI2_3, Q86UL8, sequence (Q86UL8 600-682): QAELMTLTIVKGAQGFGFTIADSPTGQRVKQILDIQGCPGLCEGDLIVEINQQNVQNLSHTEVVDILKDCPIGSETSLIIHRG

MAGI2_4, Q86UL8 = biological target: MAGI2_4, Q86UL8
MAGI2_4, Q86UL8, sequence (Q86UL8 772-865): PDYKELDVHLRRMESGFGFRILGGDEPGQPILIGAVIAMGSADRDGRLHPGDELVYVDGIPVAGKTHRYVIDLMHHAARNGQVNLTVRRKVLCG

APBA3_1, O96018 = biological target: T5, APBA3_1, O96018
T5 sequence (O96018 389-490, limits assumed, looked up): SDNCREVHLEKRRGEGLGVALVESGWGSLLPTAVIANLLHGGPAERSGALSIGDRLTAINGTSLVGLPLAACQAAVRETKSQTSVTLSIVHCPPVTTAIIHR

DVL3, Q92997 = biological target: T6, DVL3, Q92997
T6 sequence (Q92997 244-331, limits assumed, looked up): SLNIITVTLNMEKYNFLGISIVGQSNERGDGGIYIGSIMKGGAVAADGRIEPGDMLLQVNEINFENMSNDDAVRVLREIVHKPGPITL

Inadl_9, Q8NI35 = biological target: Inadl_9, Q8NI35
Inadl_9, Q8NI35, sequence (Q8NI35 1530-1615): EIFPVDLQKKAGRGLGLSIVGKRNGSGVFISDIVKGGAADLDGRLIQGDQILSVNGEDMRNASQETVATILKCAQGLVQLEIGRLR

PDZRN4_1, Q6ZMN7 = biological target: PDZRN4_1, Q6ZMN7
PDZRN4_1, Q6ZMN7, sequence (Q6ZMN7 213-318): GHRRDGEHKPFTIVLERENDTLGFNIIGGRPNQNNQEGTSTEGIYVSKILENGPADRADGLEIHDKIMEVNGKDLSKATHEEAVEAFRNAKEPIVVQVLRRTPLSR

MAGI2_2, Q86UL8 = biological target: MAGI2_2, Q86UL8
MAGI2_2, Q86UL8, sequence (Q86UL8 410-522): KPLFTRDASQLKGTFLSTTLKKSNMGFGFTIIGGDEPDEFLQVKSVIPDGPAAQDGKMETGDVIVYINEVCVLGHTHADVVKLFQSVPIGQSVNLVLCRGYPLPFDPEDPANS

Inadl_6, Q8NI35 = biological target: Inadl_6, Q8NI35
Inadl_6, Q8NI35, sequence (Q8NI35 1058-1167): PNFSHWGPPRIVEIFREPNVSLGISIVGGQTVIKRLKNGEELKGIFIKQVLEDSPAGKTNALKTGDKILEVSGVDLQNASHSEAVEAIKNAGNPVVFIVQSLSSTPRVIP

MPDZ_10, O75970 = biological target: T7, MPDZ_10, O75970
T7 sequence (O75970 1624-1722, limits assumed, looked up): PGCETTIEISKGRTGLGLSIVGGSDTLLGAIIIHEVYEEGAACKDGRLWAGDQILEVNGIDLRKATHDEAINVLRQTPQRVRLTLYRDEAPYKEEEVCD

DLG2_2, Q15700 = biological target: DLG2_2, Q15700
DLG2_2, Q15700, sequence (Q15700 189-283): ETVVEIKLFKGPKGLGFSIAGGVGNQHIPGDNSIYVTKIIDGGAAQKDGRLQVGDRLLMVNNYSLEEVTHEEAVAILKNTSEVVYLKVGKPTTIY

ARHGAP21, Q5T5U3 = biological target: T8, ARHGAP21, Q5T5U3
T8 sequence (Q5T5U3 45-169, limits assumed, looked up): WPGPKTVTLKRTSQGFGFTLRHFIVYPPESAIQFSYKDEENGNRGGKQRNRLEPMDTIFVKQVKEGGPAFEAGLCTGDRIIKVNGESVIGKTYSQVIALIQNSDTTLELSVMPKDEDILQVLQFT

DLG4_1, P78352 = biological target: DLG4_1, P78352
DLG4_1, P78352, sequence (P78352 62-152): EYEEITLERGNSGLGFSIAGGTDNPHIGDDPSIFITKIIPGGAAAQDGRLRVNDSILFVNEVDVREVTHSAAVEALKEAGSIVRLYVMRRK

Inadl_10, Q8NI35 = biological target: Inadl_10, Q8NI35
Inadl_10, Q8NI35, sequence (Q8NI35 1673-1763): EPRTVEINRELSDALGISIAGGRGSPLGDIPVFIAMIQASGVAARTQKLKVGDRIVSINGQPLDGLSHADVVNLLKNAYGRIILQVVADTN

MAGI3_2, Q5TCQ9 = biological target: MAGI3_2, Q5TCQ9
MAGI3_2, Q5TCQ9, sequence (Q5TCQ9 398-503): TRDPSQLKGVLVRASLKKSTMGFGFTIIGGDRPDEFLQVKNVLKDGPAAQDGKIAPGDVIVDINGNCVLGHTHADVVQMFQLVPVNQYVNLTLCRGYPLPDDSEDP

[1] = modified: phospho on S at position -3 from the C-terminal residue
[2] = plain residues with an end cap or a label only (N-terminal biotin on a linker: ado-ado)
[3] = modified: acetyl on K at position -1 from the C-terminal residue

Measured: pKd

FRMPD4, Q14CM0, sequence (Q14CM0 67-160): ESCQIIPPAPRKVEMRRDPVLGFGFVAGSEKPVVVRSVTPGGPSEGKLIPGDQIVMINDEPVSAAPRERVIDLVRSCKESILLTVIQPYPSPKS

RRVRKLPSTTL [RPS6KA1_-3P, Q15418]
4.1: MAGI3_2, Q5TCQ9; [1]
below the threshold: CARD11, Q9BXL7; [1] | LNX1_2, Q8TBB1; [1] | NHERF3_4, Q5T2W1; [1] | FRMPD2_3, Q68DX3; [1] | LNX1_1, Q8TBB1; [1] | RADIL, Q96JH8; [1] | LDB3, O75112; [1] | NOS1, P29475; [1] | MAGI1_1, Q96QZ7; [1] | GORASP1, Q9BQQ3; [1] | GRIP2_5, Q9C0E4; [1] | MPP7, Q5T2T1; [1] | MAGI2_3, Q86UL8; [1] | MAGI2_4, Q86UL8; [1] | APBA3_1, O96018; [1] | DVL3, Q92997; [1] | Inadl_9, Q8NI35; [1] | Inadl_6, Q8NI35; [1] | MPDZ_10, O75970; [1] | DLG2_2, Q15700; [1] | ARHGAP21, Q5T5U3; [1] | DLG4_1, P78352; [1] | Inadl_10, Q8NI35; [1]
3.57: MAGI2_2, Q86UL8; [1]
3.98: PDZRN4_1, Q6ZMN7; [1]
4.51: PTPN3, P26045; [1]
3.79: ARHGEF12, Q9NZN5-2; [1]
4.35: SCRIB_3, Q14160; [1]
3.73: FRMPD4, Q14CM0; [1]

FEEEAEEEVA [TUBB4B, P68371]
3.54: PTPN3, P26045; [2]
3.59: MPP7, Q5T2T1; [2]
below the threshold: FRMPD4, Q14CM0; [2] | CARD11, Q9BXL7; [2] | LNX1_2, Q8TBB1; [2] | SCRIB_3, Q14160; [2] | NHERF3_4, Q5T2W1; [2] | FRMPD2_3, Q68DX3; [2] | LNX1_1, Q8TBB1; [2] | RADIL, Q96JH8; [2] | LDB3, O75112; [2] | ARHGEF12, Q9NZN5-2; [2] | NOS1, P29475; [2] | MAGI1_1, Q96QZ7; [2] | GORASP1, Q9BQQ3; [2] | GRIP2_5, Q9C0E4; [2] | MAGI2_3, Q86UL8; [2] | MAGI2_4, Q86UL8; [2] | APBA3_1, O96018; [2] | DVL3, Q92997; [2] | Inadl_9, Q8NI35; [2] | PDZRN4_1, Q6ZMN7; [2] | MAGI2_2, Q86UL8; [2] | Inadl_6, Q8NI35; [2] | MPDZ_10, O75970; [2] | DLG2_2, Q15700; [2] | ARHGAP21, Q5T5U3; [2] | DLG4_1, P78352; [2] | Inadl_10, Q8NI35; [2] | MAGI3_2, Q5TCQ9; [2]

DEDQHTQITKV [PTEN_Ac, P60484]
4.37: Inadl_6, Q8NI35; [3] | DLG2_2, Q15700; [3]
4.85: MAGI2_3, Q86UL8; [3]
4.47: ARHGEF12, Q9NZN5-2; [3]
3.74: SCRIB_3, Q14160; [3]
below the threshold: FRMPD4, Q14CM0; [3] | CARD11, Q9BXL7; [3] | NHERF3_4, Q5T2W1; [3] | FRMPD2_3, Q68DX3; [3] | LDB3, O75112; [3] | MAGI1_1, Q96QZ7; [3] | GRIP2_5, Q9C0E4; [3] | MPP7, Q5T2T1; [3] | APBA3_1, O96018; [3] | DVL3, Q92997; [3] | PDZRN4_1, Q6ZMN7; [3] | ARHGAP21, Q5T5U3; [3] | Inadl_10, Q8NI35; [3]
3.87: MAGI2_4, Q86UL8; [3]
3.61: LNX1_1, Q8TBB1; [3]
3.81: NOS1, P29475; [3]
4.55: MAGI3_2, Q5TCQ9; [3]
4.04: GORASP1, Q9BQQ3; [3]
4.18: LNX1_2, Q8TBB1; [3] | MPDZ_10, O75970; [3]
3.67: Inadl_9, Q8NI35; [3]
3.77: MAGI2_2, Q86UL8; [3]
3.98: DLG4_1, P78352; [3]
4.2: PTPN3, P26045; [3]
4.71: RADIL, Q96JH8; [3]
